Measured values taken from patent US20130136748A1 (Ablynx, published 2013).
Values joined by “and” are separate entries in the source; they are usually repeats but may differ in a detail not shown here. Equal entries are not always repeated.

Assays:
[1] = target: T1, hHER3 ECD (human HER3 extracellular domain) (human, UniProt P21860 20-643); assay: SPR off rate on HER3-ECD
T1 construct: also called recombinant HER3-ECD

hHER3 full length [2] = target: T2, hHER3 full length (human, UniProt P21860 20-1342); assay: FACS, 400 nM, competitor 18E08-biotin
T2 construct: On transfected CHO, CHO HER2/HER3, CHO EGFR/HER3 or CHO Flp-In cells; endogenous HER3 of MCF-7 and MDA-MB468 cells in the signalling assays; also called human HER3

[3] = target: T1, hHER3 ECD (human HER3 extracellular …); assay: ELISA, coated hHER3-ECD
[4] = target: T3, human HER3-Fc (R&D Systems, 348-RB) (human, UniProt P21860 20-643); assay: SPR, HER3-Fc captured; heterogenous curve, main interaction (84%)
T3 construct: Bought; also called hHER3-Fc; Fc-HER3; Fc part of the bought chimera not given, not described

[5] = target: T3, human HER3-Fc (R&D Systems, 348-RB); assay: 34C07 competition alphascreen
hHER3 full length [6] = target: T2, hHER3 full length; assay: FACS, 400 nM, competitor 17C08-biotin
[7] = target: T3, human HER3-Fc (R&D Systems, 348-RB); assay: HRG competition alphascreen
[8] = target: T1, hHER3 ECD (human HER3 extracellular …); assay: off rate on recombinant HER3-ECD, periplasmic extract
hHER3 full length [9] = target: T2, hHER3 full length; assay: cell-based or functional assay
hHER3 full length [10] = target: T2, hHER3 full length; assay: cell-based or functional assay; remark: listed apart in the source
hHER3 full length [11] = target: T2, hHER3 full length; assay: FACS, 400 nM, competitor 21B02-biotin
hHER3 full length [12] = target: T2, hHER3 full length; assay: FACS, 400 nM, competitor 04C07-biotin
hHER3 full length [13] = target: T2, hHER3 full length; assay: FACS, 400 nM, competitor 04F10-biotin
[14] = target: T4, cHER3ECD (Maccaca fascicularis HER3 extracellular domain) (Macaca fascicularis, UniProt P21860 20-643 (human entry)); assay: ELISA, coated cHER3-ECD
T4 construct: also called cyno HER3ECD; cyno HER3-ECD
T4 chain: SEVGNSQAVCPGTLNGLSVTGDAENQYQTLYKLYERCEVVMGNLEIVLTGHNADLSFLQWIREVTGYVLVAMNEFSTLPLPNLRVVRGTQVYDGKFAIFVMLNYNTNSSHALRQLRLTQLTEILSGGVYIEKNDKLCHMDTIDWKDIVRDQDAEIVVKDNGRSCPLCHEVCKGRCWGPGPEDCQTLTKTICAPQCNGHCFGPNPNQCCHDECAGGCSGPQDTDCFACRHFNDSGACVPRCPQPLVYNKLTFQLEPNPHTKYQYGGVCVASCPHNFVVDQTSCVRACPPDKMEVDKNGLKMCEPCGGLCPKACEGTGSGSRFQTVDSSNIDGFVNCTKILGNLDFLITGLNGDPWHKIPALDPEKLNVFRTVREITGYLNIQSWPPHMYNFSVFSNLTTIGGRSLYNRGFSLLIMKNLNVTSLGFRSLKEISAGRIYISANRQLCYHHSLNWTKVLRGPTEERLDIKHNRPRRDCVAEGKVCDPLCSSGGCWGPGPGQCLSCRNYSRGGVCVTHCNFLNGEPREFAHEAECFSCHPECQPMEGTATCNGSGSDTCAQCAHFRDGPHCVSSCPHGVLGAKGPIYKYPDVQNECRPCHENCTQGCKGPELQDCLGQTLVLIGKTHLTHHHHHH

hHER3 full length [15] = target: T2, hHER3 full length; assay: FACS, 400 nM, competitor 23F05-biotin
hHER3 full length [16] = target: T2, hHER3 full length; assay: cell-based or functional assay; remark: listed apart in the source

koff [1]: 0.0003 s⁻¹ and 0.00031 s⁻¹
% competition (hHER3 full length [2]): 99%
EC50 [3]: 0.46 nM
Kd [4]: 14 nM
kon [4]: 18000 M⁻¹ s⁻¹
IC50 [5]: 5.5 nM
% competition (hHER3 full length [6]): 56%
% inhibition [7]: 65.2%
IC50 [7]: 0.815 nM
koff [8]: 0.00037 s⁻¹ and 0.00039 s⁻¹
IC50, HRG1-β1 induced pHER3, MCF-7 (hHER3 full length [9]): 1.89e-08 M
IC50, HRG1-β1 induced pHER3, MDA-MB468 (hHER3 full length [9]): 1.07e-08 M
IC50, HRG1-β1 induced pAkt, MCF-7 (hHER3 full length [10]): 4.99e-08 M
IC50, HRG1-β1 induced pERK1/2, MCF-7 (hHER3 full length [10]): 1e-07 M
% competition (hHER3 full length [11]): 6%
% competition (hHER3 full length [12]): 0%
% competition (hHER3 full length [13]): 0%
EC50 [14]: 0.43 nM
% competition (hHER3 full length [15]): 10%
IC50 pHER3 blocking, MCF7 (hHER3 full length [16]): 2.49e-08 M
B1: 34C07 (VHH)
VHH: EVQLVESGGGLVQPGGSLGLSCVASGSIFRINAMAWYRQAPGKQRELVAEITAGGSTNYADSVKGRFTISVDNAWNTLYLQMNSLKVEDTAVYYCNLDHYTTWDRRSAYWGQGTQVTVSS
notes: c-myc, His6-tagged form as expressed; also called 34C7; HER3MS34C07
